Data taken from US20150337037A1 (MSM PROTEIN TECHNOLOGIES, published 2015).
Changes are numbered by the printed parent chain.

B1: MSM-R606 IgG1 (antibody)
heavy: not shown
light: EIVLTQSPGTLSLSPGERATLSCRASQSVSSSYLAWYQQKPGQAPRLLIYGASSRATGIPDRFSGSGSGTDFTLTISRLEPEDFAVYYCQQSSYSPITFGQGTKVEIKRTVAAPSVFIFPPSDEQLKSGTASVVCLLNNFYPREAKVQWKVDNALQSGNSQESVTEQDSKDSTYSLSSTLTLSKADYEKHKVYACEVTHQGLSSPVTKSFNRGEC
notes: Fully human IgG1
B2: MSM-R607 IgG1 (antibody, V domains shown)
VH: EVQLLESGGGLVQPGGSLRLSCAASGFTFSSYYMHWVRQAPGKGLEWVSLIAPANSDTYYADSVKGRFTISRDNSKNTLYLQMNSLRAEDTAVYYCARSSYTRHSSKRGMDYWGQGTLVTVSS
VL: EIVLTQSPGTLSLSPGERATLSCRASQSVSSSYLAWYQQKPGQAPRLLIYGASSRATGIPDRFSGSGSGTDFTLTISRLEPEDFAVYYCQQAAYSPITFGQGTKVEIKR
notes: Fully human IgG1
B3: MSM-R627/33 (antibody, V domains shown)
VH: EVQLLESGGGLVQPGGSLRLSCAASGFTISSYMAWVRQAPGKGLEWVSSISPSSGSTYYADSVKGRFTISRDNSKNTLYLQMNSLRAEDTAVYYCARSMWSKQMHRYGLDYWGQGTLVTVSS
VL: EIVLTQSPGTLSLSPGERATLSCRASQSVSSSYLAWYQQKPGQAPRLLIYGASSRATDIPDRFSGSGSGTDFTLTISRLEPEDFAVYYCQQSYSDPITFGQGTKVEIK
notes: also called MSM 627 HC/JSJ R633LC
B4: MSM-R621 IgG1 (antibody, V domains shown)
VH: EVQLLESGGGLVQPGGSLRLSCAASGFTFTTYYMHWVRQAPGKGLEWVSGIGPRGSWTGYADSVKGRFTISRDNSKNTLYLQMNSLRAEDTAVYYCARGRALVSNYSGLDYWGQGTLVTVSS
VL: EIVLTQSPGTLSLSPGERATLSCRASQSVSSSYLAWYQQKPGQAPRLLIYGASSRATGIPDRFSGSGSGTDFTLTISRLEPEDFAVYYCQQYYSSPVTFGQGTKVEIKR
notes: Fully human IgG1
B5: MSM-R625 (antibody, human IgG1, kappa, V domains shown)
VH: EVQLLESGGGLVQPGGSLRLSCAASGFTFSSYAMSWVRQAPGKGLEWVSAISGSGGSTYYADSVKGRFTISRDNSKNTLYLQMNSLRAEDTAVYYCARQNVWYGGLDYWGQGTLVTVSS
VL: B2 VL with A92Y, A93S, S95A
B6: MSM-R633 (antibody, V domains shown)
VH: EVQLLESGGGLVQPGGSLRLSCAASGFTFTSSYMAWVRQAPGKGLEWVSSIAPSSGSTYYADSVKGRFTISRDNSKNTLYLQMNSLRAEDTAVYYCARSRWEWYYHSSHGLDYWGQGTLVTVSS
VL: B3 VL
B7: MSM-R610 IgG1 (antibody, V domains shown)
VH: EVQLLESGGGLVQPGGSLRLSCAASGFTFTGSSMSWVRQAPGKGLEWVSLISSRGSYTYYADSVKGRFTISRDNSKNTLYLQMNSLRAEDTAVYYCARSYAYQYRGLDYWGQGTLVTVSS
VL: B2 VL with A92N, A93R, Y94T
notes: Fully human IgG1; also called MSM R610.46
B8: MSM-R615 IgG1 (antibody, V domains shown)
VH: EVQLLESGGGLVQPGGSLRLSCAASGFTFSSYYMHWVRQTPGKGLEWVSIISPWSSSTYYADSVKGRFTISRDNSKNTLYLQMNSLRAEDTAVYYCARSSYSWGESYKRAIDYWGQGTLVTVSS
VL: B2 VL with P15H, A92S, A93Y, I97V
notes: Fully human IgG1
B9: MSM-R619 IgG1 (antibody, V domains shown)
VH: EVQLLESGGGLVQPGGSLRLSCAASGFTFSNYYIHWVRQAPGKGLEWVSLISPGGSTTYYADSVKGRFTISRDNSKNTLYLQMNSLRAEDTAVYYCARGRTWWSTYYSGIDYWGQGTLVTVSS
VL: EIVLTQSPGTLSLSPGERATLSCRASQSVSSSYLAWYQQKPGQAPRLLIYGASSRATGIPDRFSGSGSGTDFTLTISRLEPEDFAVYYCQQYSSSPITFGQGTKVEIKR
notes: Fully human IgG1; also called MSM R19
B10: MSM-R604 IgG1 (antibody, V domains shown)
VH: EVQLLESGGGLVQPGGSLRLSCAASGFTFTNYSMHWVRQAPGKGLEWVSLISPYSSSTYYADSMKGRFTISRDNSKNTLYLQMNSLRAEDTAVYYCARGRYYGAYSYPGFDYWGQGTLVTVSS
VL: B2 VL with A92S, Y94K, S95N, I97L
notes: Fully human IgG1
B11: MSM-R608 IgG1 (antibody)
heavy: not shown
light: B1 light with S93Y, S95A, I97V
notes: Fully human IgG1
B12: MSM-R609 IgG1 (antibody, V domains shown)
VH: EVQLLESGGGLVQPGGSLRLSCAASGFTFTASYMSWVRQAPGKGLEWVSNISPKYGNTYYADSVKGRFTISRDNSKNTLYLQMNSLRAEDTAVYYCARSIRSAKYSYYGIDYWGQGTLVTVSS
VL: B2 VL with A92S, Y94S, S95A, I97V
notes: Fully human IgG1
B13: MSM-R622 IgG1 (antibody, V domains shown)
VH: B7 VH with T30S, G31K, S32N, S52T, R54Y, G55S, S56G
VL: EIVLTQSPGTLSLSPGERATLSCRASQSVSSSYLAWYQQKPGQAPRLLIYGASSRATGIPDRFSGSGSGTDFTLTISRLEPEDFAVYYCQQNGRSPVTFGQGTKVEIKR
notes: Fully human IgG1; also called MSM R622.46
B14: MSM-R612 IgG1 (antibody, V domains shown)
VH: EVQLLGSGGGLVQPGGSLRLSCAASGFTFTTYYMHWVRQAPGKGLEWVSLISPNAGNTYYADSVKGRFTISRDNSKNTLYLQMNSLRAEDTAVYYCARGRSRAGTSGMDYWGQGTLVTVSS
VL: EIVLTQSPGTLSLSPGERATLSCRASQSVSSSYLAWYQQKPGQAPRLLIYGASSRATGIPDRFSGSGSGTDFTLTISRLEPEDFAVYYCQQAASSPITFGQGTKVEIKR
notes: Fully human IgG1
B15: MSM-R617 IgG1 (antibody, V domains shown)
VH: B7 VH with T30S, S32Y, S33A, S35H, L50S, S52G, G55R, S56G, Y57F, Y59S
VL: EIVLTQSPGTLSLSPGERATLSCRASQSVSSSYLAWYQQKPGQAPRLLIYGASSRATGIPDRFSGSGSGTDFTLTISRLEPEDFAVYYCQQRSSVTFGQGTKVEIKR
notes: Fully human IgG1; also called MSMR617.46

These binders were tested against T1, human chemokine receptor CCR6 (human, UniProt P51684 1-374) (assay: cell-based or functional assay).
T1 sequence (looked up): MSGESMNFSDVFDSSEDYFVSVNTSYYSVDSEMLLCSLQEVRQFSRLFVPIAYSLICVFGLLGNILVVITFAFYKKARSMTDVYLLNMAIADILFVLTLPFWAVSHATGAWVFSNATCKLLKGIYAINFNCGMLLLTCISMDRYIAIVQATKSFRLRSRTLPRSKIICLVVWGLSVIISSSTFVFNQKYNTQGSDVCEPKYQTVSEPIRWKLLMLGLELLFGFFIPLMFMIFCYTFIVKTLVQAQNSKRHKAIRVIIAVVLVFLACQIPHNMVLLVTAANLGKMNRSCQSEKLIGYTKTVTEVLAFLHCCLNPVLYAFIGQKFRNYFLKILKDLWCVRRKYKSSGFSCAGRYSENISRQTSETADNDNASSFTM
With B1 the “IC50, nM CCL20-Ca-Flux” value was 8.3 nM. In the case of B2, the “IC50, nM CCL20-Ca-Flux” value is reported as 13.5 nM.

Target: T1, human chemokine receptor CCR6
Assay: cell-based or functional assay
Remark: another data set of the same source
B1 was tested, and the “Ca-Flux IC50, nM CCR6/CCL20” value was 8.3 nM. For B2, the “Ca-Flux IC50, nM CCR6/CCL20” value was 13.5 nM.

Target: T1, human chemokine receptor CCR6
Assay: cell-based or functional assay
Remark: another data set of the same source
In the case of B3, the “IC50, nM (Ca-Flux) CCR6/CCL20” value is reported as over 500 nM.

The binders below were run against T2, human CXCR6 (human, UniProt O00574 1-342) (assay: flow cytometry on GPCR-expressing cell panel).
T2 construct: whole, on cells
T2 sequence (O00574 whole entry): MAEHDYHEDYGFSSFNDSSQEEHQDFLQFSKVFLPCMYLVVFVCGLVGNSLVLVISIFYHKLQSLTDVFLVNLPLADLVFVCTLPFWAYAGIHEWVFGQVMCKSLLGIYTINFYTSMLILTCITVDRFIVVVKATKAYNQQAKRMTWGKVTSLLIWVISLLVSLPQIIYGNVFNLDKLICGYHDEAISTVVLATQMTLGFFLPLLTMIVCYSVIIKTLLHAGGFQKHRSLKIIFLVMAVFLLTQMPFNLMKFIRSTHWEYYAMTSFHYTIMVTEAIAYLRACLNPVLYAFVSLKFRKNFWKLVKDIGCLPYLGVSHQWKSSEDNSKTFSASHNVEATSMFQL
B2: binds. B4: binds.

These binders were tested against T3, mouse CCR6 (mouse, UniProt O54689 1-367) (assay: flow cytometry on cells expressing mouse CCR6).
T3 construct: whole, on cells; gene derived from a cDNA library; also called CCR6 mouse
T3 sequence (looked up): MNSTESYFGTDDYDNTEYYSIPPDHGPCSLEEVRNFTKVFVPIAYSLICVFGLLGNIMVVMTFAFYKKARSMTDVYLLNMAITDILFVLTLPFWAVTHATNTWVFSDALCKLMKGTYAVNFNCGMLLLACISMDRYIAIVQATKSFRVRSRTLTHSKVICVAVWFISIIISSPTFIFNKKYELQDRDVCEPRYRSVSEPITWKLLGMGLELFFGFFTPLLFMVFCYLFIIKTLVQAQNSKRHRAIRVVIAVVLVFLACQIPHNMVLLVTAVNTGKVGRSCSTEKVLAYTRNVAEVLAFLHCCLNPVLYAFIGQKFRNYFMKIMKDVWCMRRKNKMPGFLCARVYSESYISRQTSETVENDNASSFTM
B5: no binding. B6: no binding.

What follows are binders tested against T3, mouse CCR6 (assay: flow cytometry on CHO cells expressing mouse CCR6).
B7: no binding. B8: no binding. B9: no binding. B10: no binding.

These binders were tested against T1, human chemokine receptor CCR6 (assay: flow cytometry on cells expressing the target, antibody titration).
In the case of B3, the EC50 is reported as 2.6 nM. Work on B5 yielded an EC50 of 1.6 nM. With B6 the EC50 was 7 nM.

The binders below were run against T4, cynomolgus monkey CCR6 (cynomolgus monkey (Macaca Fascicularis)) in the same assay as above.
T4 construct: whole, on cells; gene derived from a total RNA library; also called CCR6 cyno; cyno CCR6
Binder B3 has an EC50 of 2.9 nM. B5 showed an EC50 of 2.6 nM. With B6 the EC50 was 7.5 nM.

Each binder was assayed against T1, human chemokine receptor CCR6 (assay: flow cytometry on cells expressing the target, IgG1 titration, anti-human Fc-PE).
B1 showed an EC50 of 1.4 nM. Binder B2 has an EC50 of 1.2 nM. In the case of B11, the EC50 is reported as 2 nM. In the case of B12, the EC50 is reported as 1 nM. For B7, the EC50 was over 100 nM. B13 gave an EC50 of 1.9 nM. With B14 the EC50 was 1 nM. B15 gave an EC50 of 1.5 nM. For B9, the EC50 was 1.7 nM. Binder B4 has an EC50 of 1.5 nM. Work on B10 yielded an EC50 of 2.9 nM.

What follows are binders tested against T4, cynomolgus monkey CCR6 in the same assay as above.
Binder B1 has an EC50 of 1.7 nM. B2 gave an EC50 of 2 nM. Binder B11 has an EC50 of 2.5 nM. Binder B12 has an EC50 of 1.6 nM. With B7 the EC50 was over 100 nM. Work on B14 yielded an EC50 of 1.6 nM. Work on B8 yielded an EC50 of 2.5 nM. B15 was tested, and the EC50 was 1.9 nM. B9 was tested, and the EC50 was 2 nM. Work on B4 yielded an EC50 of 2.2 nM. B10 gave an EC50 of 1.5 nM.

Each binder was assayed against T3, mouse CCR6 in the same assay as above.
B1 showed an EC50 of 0.7 nM. B2 was tested, and the EC50 was 1 nM. With B11 the EC50 was 1 nM. In the case of B14, the EC50 is reported as 1.5 nM. Work on B4 yielded an EC50 of 30 nM.

These binders were tested against T1, human chemokine receptor CCR6 (assay: flow cytometry on cells expressing the target, IgG1 titration (repeat of Table 2)).
B1 was tested, and the EC50 was 1.4 nM. B2 gave an EC50 of 1.2 nM. B11 showed an EC50 of 2 nM. B12 gave an EC50 of 1 nM. With B7 the EC50 was over 100 nM. For B13, the EC50 was 1.9 nM. Binder B14 has an EC50 of 1 nM. With B8 the EC50 was 1 nM. B15 gave an EC50 of 1.5 nM. Binder B9 has an EC50 of 1.7 nM. B4 was tested, and the EC50 was 1.5 nM. For B10, the EC50 was 2.9 nM.

The binders below were run against T4, cynomolgus monkey CCR6 in the same assay as above.
Work on B1 yielded an EC50 of 1.7 nM. With B2 the EC50 was 2 nM. B11 showed an EC50 of 2.5 nM. In the case of B12, the EC50 is reported as 1.6 nM. B7 gave an EC50 of over 100 nM. B14 was tested, and the EC50 was 1.6 nM. In the case of B8, the EC50 is reported as 2.5 nM. B15 gave an EC50 of 1.9 nM. In the case of B9, the EC50 is reported as 2 nM. With B4 the EC50 was 2.2 nM. Work on B10 yielded an EC50 of 1.5 nM.

The binders below were run against T3, mouse CCR6 in the same assay as above.
B1 showed an EC50 of 0.7 nM. In the case of B2, the EC50 is reported as 1 nM. B11 showed an EC50 of 1 nM. In the case of B14, the EC50 is reported as 1.5 nM. Binder B4 has an EC50 of 30 nM.

Each binder was assayed against T1, human chemokine receptor CCR6 (assay: flow cytometry on R1610 cells expressing human CCR6, IgG1 titration, anti-human Fc-PE).
B8 showed an EC50 of 1 nM.
